Assay results: paper PMC5487423 (2017)
Read-outs that look alike come from different tables or passages of the source.

Tests used:
Test in all cases: BLI
[1] = molecular target: T1, CCL22_MOUSE (Mus musculus)
T1 chain: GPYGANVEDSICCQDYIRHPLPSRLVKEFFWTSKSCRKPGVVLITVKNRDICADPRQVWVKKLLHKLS

[2] = molecular target: T2, CCL3_MOUSE (Mus musculus)
T2 chain: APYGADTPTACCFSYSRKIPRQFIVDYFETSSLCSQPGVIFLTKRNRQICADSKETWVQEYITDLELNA

[3] = molecular target: CCL2 (human, UniProt P13500 24-99)
[4] = molecular target: T3, CCL4_MOUSE (Mus musculus)
T3 chain: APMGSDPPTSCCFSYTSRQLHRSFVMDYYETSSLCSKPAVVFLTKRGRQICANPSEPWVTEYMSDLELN

[5] = molecular target: CCL2_MOUSE (Mus musculus)
[6] = molecular target: T4, CCL22_HUMAN (Homo sapiens)
T4 chain: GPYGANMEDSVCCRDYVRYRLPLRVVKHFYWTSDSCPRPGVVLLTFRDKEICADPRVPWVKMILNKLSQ

[7] = molecular target: T5, CCL8 (human, UniProt P80075 24-99)
T5 chain: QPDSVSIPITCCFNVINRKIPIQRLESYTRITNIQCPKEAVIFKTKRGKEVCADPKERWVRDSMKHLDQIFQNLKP

[8] = molecular target: T6, CCL11_MOUSE (Mus musculus)
T6 chain: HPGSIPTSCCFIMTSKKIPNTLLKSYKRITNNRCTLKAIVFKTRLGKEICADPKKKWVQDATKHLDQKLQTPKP

[9] = molecular target: T7, CCL5 (human, UniProt P13501 24-91)
T7 chain: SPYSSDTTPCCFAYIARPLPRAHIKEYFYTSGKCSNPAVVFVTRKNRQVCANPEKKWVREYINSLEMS

[10] = molecular target: T8, CCL3 (human, UniProt P10147 24-92)
T8 chain: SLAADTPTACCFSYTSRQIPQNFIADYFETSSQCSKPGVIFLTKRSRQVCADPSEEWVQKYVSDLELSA

[11] = molecular target: T9, CCL4_HUMAN (Homo sapiens)
T9 chain: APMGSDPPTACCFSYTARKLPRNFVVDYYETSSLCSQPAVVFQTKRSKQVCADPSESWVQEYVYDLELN

[12] = molecular target: CCL11 (human, UniProt P51671 24-97)
[13] = molecular target: T10, CCL24_HUMAN (Homo sapiens)
T10 chain: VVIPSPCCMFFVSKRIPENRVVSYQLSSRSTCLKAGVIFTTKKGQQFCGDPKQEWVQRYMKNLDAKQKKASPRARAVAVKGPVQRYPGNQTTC

[14] = molecular target: CCL7 (human, UniProt P80098 24-99)
[15] = molecular target: T11, CCL19_HUMAN (Homo sapiens)
T11 chain: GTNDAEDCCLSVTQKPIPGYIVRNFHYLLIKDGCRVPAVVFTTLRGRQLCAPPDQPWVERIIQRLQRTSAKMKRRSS

[16] = molecular target: T12, CCL16_HUMAN (Homo sapiens)
T12 chain: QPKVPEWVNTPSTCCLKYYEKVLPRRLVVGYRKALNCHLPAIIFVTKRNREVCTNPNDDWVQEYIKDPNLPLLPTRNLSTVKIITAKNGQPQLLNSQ

[17] = molecular target: CCL24_MOUSE
[18] = molecular target: CCL19_MOUSE
[19] = molecular target: CCL15_HUMAN
[20] = molecular target: CCL8_MOUSE
[21] = molecular target: CCL23_HUMAN
[22] = molecular target: CCL9_MOUSE
[23] = molecular target: CCL27_MOUSE
[24] = molecular target: CCL27_HUMAN
[25] = molecular target: CCL6_MOUSE
[26] = molecular target: CCL12_MOUSE
[27] = molecular target: CCL15_HUMAN; remark: listed apart in the source
[28] = molecular target: CCL23_HUMAN; remark: listed apart in the source
[29] = molecular target: CCL27_HUMAN; remark: listed apart in the source

Chain of CCL7 (P80098 24-99): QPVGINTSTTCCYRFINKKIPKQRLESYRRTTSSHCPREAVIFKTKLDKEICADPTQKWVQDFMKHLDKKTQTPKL
Chain of CCL2_MOUSE (Mus musculus) (chain, as listed by the source): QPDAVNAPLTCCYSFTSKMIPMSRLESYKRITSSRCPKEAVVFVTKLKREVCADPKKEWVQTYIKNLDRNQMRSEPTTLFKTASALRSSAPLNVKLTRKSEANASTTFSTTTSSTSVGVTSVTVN
Chain of CCL2 (P13500 24-99): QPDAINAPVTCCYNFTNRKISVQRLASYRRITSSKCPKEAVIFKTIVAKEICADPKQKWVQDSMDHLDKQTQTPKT
Chain of CCL11 (P51671 24-97): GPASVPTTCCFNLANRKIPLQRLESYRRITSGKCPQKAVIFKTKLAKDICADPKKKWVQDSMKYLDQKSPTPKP

B1: P991_AMBCA, purified, C-terminal StrepII-8xHis tag (natural protein)
chain: ETGENGEGTTQPDYDNSTDYYNYEDFKCTCPAPHLNNTNGTVMKPIGCYYTCNVTRCTAPDTYPCYNLTEHQAKNLTTSPTTLCAVGNCDHGICVPNGTKELCFKAPNLEE
Question: With B1 as the binder, how does the Kd [1] read?
Answer: 8.59 nM

Question: And the Kd [2]?
Answer: 2.48 nM

Question: What about the Kd [3] of the same binder?
Answer: 12.2 nM

Question: What about the Kd [4] of the same binder?
Answer: 0.401 nM

Question: What about the Kd [5] of the same binder?
Answer: 24.3 nM

Question: And the Kd [6]?
Answer: 3.97 nM

Question: And the Kd [7]?
Answer: 8.79 nM

Question: And the Kd [8]?
Answer: 1.11 nM

Question: And the Kd [9]?
Answer: 1.47 nM

Question: And the Kd [10]?
Answer: 1.08 nM

Question: What about the Kd [11] of the same binder?
Answer: 5.82 nM

Question: What about the Kd [12] of the same binder?
Answer: 3.43 nM

Question: What about the Kd [13] of the same binder?
Answer: 6.54 nM

Question: What about the Kd [14] of the same binder?
Answer: 0.514 nM

Question: And the Kd [15]?
Answer: 14.4 nM

Question: What about the Kd [16] of the same binder?
Answer: 1.28 nM

Question: What about the Kd [17] of the same binder?
Answer: 3.16 nM

Question: What about the Kd [18] of the same binder?
Answer: 4.81 nM

Question: What about the Kd [19] of the same binder?
Answer: 159 nM

Question: What about the Kd [20] of the same binder?
Answer: 4.83 nM

Question: What about the Kd [21] of the same binder?
Answer: 5.58 nM

Question: What about the Kd [22] of the same binder?
Answer: 13.3 nM

Question: And the Kd [23]?
Answer: 58 nM

Question: What about the Kd [24] of the same binder?
Answer: 38.9 nM

Question: And the Kd [25]?
Answer: 1.52 nM

Question: And the Kd [26]?
Answer: 7.47 nM

Question: What about the Kd [27] of the same binder?
Answer: 160 nM

Question: What about the Kd [28] of the same binder?
Answer: 5.6 nM

Question: What about the Kd [29] of the same binder?
Answer: 39 nM
